PMC6753088, “The cryo-EM structure of the acid activatable pore-forming immune effector Macrophage-expressed gene 1” (Nature Communications, 2019)
Positions count from the first letter of the chain named. Names and notes keep the numbering of the source.

Molecular target: the molecule itself
Experiment: cryo-EM structure; soluble MPEG1 ectodomain, 2.0-2.5 mg/mL, 20 mM Tris-HCl pH 7.2, 0.3 M NaCl; single particle analysis; two hexadecameric rings stacked head to head (D16, C16 or C1 imposed)

B1: human MPEG1 (Macrophage-expressed gene 1 / Perforin-2) soluble ectodomain, wild type (domain or fragment)
chain: KSGKPSGEMDEVGVQKCKNALKLPVLEVLPGGGWDNLRNVDMGRVMELTYSNCRTTEDGQYIIPDEIFTIPQKQSNLEMNSEILESWANYQSSTSYSINTELSLFSKVNGKFSTEFQRMKTLQVKDQAITTRVQVRNLVYTVKINPTLELSSGFRKELLDISDRLENNQTRMATYLAELLVLNYGTHVTTSVDAGAALIQEDHLRASFLQDSQSSRSAVTASAGLAFQNTVNFKFEENYTSQNVLTKSYLSNRTNSRVQSIGGVPFYPGITLQAWQQGITNHLVAIDRSGLPLHFFINPNMLPDLPGPLVKKVSKTVETAVKRYYTFNTYPGCTDLNSPNFNFQANTDDGSCEGKMTNFSFGGVYQECTQLSGNRDVLLCQKLEQKNPLTGDFSCPSGYSPVHLLSQIHEEGYNHLECHRKCTLLVFCKTVCEDVFQVAKAEFRAFWCVASSQVPENSGLLFGGLFSSKSINPMTNAQSCPAGYFPLRLFENLKVCVSQDYELGSRFAVPFGGFFSCTVGNPLVDPAISRDLGAPSLKKCPGGFSQHPALISDGCQVSYCVKSGLFTGGSLPPARLPPFTRPPLMSQAATNTVIVTNSENARSWIKDSQTHQWRLGEPIELRRAMNVIHGDGGGLS
  stoichiometry N: 16

B2: human MPEG1 soluble ectodomain, L425K mutant (domain or fragment)
chain: B1 chain with L425K
modifications: a glycan moiety attached to TMH-2 (residue not given)
  stoichiometry N: 16
